Key:
[1] = biological target: plasma kallikrein (human)
[2] = biological target: the molecule itself; test: SAXS

IC50 of ITIH4 on cleavage of HMWK by plasma kallikrein in Ca2+/Mg2+, SDS-PAGE [1] [µM] | Molecule | stoichiometry N [2]
0.09 | recombinant ITIH4 (ITIH4 WT) (from UniProt Q14624 29-930) (natural protein) | –
– | recombinant ITIH4 (ITIH4 WT) (natural protein, human, UniProt Q14624 29-930, looked up) EKNGIDIYSLTVDSRVSSRFAHTVVTSRVVNRANTVQEATFQMELPKKAFITNFSMIIDGMTYPGIIKEKAEAQAQYSAAVAKGKSAGLVKATGRNMEQFQVSVSVAPNAKITFELVYEELLKRRLGVYELLLKVRPQQLVKHLQMDIHIFEPQGISFLETESTFMTNQLVDALTTWQNKTKAHIRFKPTLSQQQKSPEQQETVLDGNLIIRYDVDRAISGGSIQIENGYFVHYFAPEGLTTMPKNVVFVIDKSGSMSGRKIQQTREALIKILDDLSPRDQFNLIVFSTEATQWRPSLVPASAENVNKARSFAAGIQALGGTNINDAMLMAVQLLDSSNQEERLPEGSVSLIILLTDGDPTVGETNPRSIQNNVREAVSGRYSLFCLGFGFDVSYAFLEKLALDNGGLARRIHEDSDSALQLQDFYQEVANPLLTAVTFEYPSNAVEEVTQNNFRLLFKGSEMVVAGKLQDRGPDVLTATVSGKLPTQNITFQTESSVAEQEAEFQSPKYIFHNFMERLWAYLTIQQLLEQTVSASDADQQALRNQALNLSLAYSFVTPLTSMVVTKPDDQEQSQVAEKPMEGESRNRNVHSGSTFFKYYLQGAKIPKPEASFSPRRGWNRQAGAAGSRMNFRPGVLSSRQLGLPGPPDVPDHAAYHPFRRLAILPASAPPATSNPDPAVSRVMNMKIEETTMTTQTPAPIQAPSAILPLPGQSVERLCVDPRHRQGPVNLLSDPEQGVEVTGQYEREKAGFSWIEVTFKNPLVWVHASPEHVVVTRNRRSSAYKWKETLFSVMPGLKMTMDKTGLLLLSDPDKVTIGLLFWDGRGEGLRLLLRDTDRFSSHVGGTLGQFYQEVLWGSPAASDDGRRTLRVQGNDHSATRERRLDYQEGPPGVEISCWSVEL | 2

Source: PMC7793589 (Science Advances, 2021)
